According to patent US20240141038A1 (SHANGHAI QILU PHARMACEUTICAL RESEARCH AND DEVELOPMENT CENTRE, published 2024):

Legend:
[1] = target: T1, Human NKp46 antigen for immunization, screening, and testing (Kactus, NKP-HM146) (human, UniProt O76036 22-255); test: ELISA, coated antigen, VHH supernatant, anti-Myc HRP
T1 construct: Bought protein; also called human NKp46 antigen protein; human NKp46 protein
Procedure: (§1) In order to obtain positive antibodies that can cross-bind to human NKp46 and cynomolgus monkey NKp46, the above libraries were amplified and added into M13K07 helper phage and assembled into bacteriophages. 1×10¹² pfu of immune camel antibody library and immune alpaca antibody library were added thereto, and the phages were incubated with biotinylated human NKp46 protein (8 μg/mL) bound to magnetic beads for 1 h at room temperature. After washing off the unbound bacteriophages with 0.05% PBST, the phages specifically bound to NKp46 were eluted with […] triethylamine, and after gradient dilution of the bacteriophages above, E. coli SS320 in the logarithmic growth phase were infected. After being cultured overnight at 37° C. on plates containing ampicillin, single-clone was picked for IPTG-induced expression, and the supernatant was used for ELISA assay. ELISA plates were coated with […] human NKp46 antigen or cynomolgus monkey NKp46 antigen overnight at 4° C., then washed 3 times with 0.05% PBST and blocked with 5% skim milk at room temperature for 1 h, and washed 3 times with 0.05% PBST. Then 30 µL of induced supernatant was then added into per well, medium were added to negative control wells, the ELISA plates were incubated at room temperature for 1 h, and finally detected with anti-Myc HRP (VHH with his and c-Myc labels were expressed by the induction of IPTG. Sequence clones that had OD450 values of greater than 1.0 for binding to human NKp46 and cynomolgus monkey NKp46 as determined by ELISA, and of which the ratio of OD450 values to that of negative control were greater than 3 were sequenced, thereby obtaining amino acid sequences of 30 variable regions of heavy chain antibodies disclosed in the present disclosure, as shown in Table 2.

[2] = target: T2, Cynomolgus monkey NKp46 for immunization, screening, and testing (Kactus, NKP-CM146) (cynomolgus monkey, UniProt Q95JB9 22-254); test: as above
T2 construct: Bought protein; also called monkey NKp46 antigen protein; cynomolgus monkey NKp46 antigen
T2 sequence (Q95JB9 other isoform, or with tags, fused parts or gaps limits assumed): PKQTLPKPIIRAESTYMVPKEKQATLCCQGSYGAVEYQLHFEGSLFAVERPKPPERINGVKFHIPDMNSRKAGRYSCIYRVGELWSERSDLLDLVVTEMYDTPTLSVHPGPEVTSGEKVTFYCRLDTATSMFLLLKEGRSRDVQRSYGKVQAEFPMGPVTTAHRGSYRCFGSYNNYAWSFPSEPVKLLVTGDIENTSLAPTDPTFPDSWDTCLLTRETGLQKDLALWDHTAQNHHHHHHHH
Procedure: as §1

T1 sequence (O76036 other isoform, or with tags, fused parts or gaps limits assumed): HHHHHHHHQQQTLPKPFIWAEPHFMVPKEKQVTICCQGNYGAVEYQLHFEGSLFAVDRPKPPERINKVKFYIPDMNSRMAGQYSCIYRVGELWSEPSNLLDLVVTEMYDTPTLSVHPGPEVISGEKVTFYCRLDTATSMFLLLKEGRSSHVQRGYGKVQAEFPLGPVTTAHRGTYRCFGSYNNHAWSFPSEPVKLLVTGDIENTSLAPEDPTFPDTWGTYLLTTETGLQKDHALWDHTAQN

Row | OD450 [1] | ratio of OD450 to negative control [1] | OD450 [2] | ratio of OD450 to negative control [2] | Binder
1 | > 1 | > 3 | > 1 | > 3 | NKp46-PA29 VHH (his and c-Myc labels) (VHH, IPTG-induced E. coli supernatant used in the screening ELISA; also called NKp46-PA29 clone supernatant; not shown: his and c-Myc labels) VHH: QVQLVESGGGWVQPGGSLRLSCAASGRTYSIYGMGWFRQAPGKEREIVAAINWNSGHTYYADSVKGRFTISRDNAKNTHYLQMNSLKPEDTAVYYCAADSIIGLSFTVKDYDYWGQGTQVTVSS
2 | > 1 | > 3 | > 1 | > 3 | NKp46-PA28 VHH (his and c-Myc labels) (VHH, IPTG-induced E. coli supernatant used in the screening ELISA; also called NKp46-PA28 clone supernatant; not shown: his and c-Myc labels) VHH: QVQLVESGGGLVQAGDSLRLSCVASGRTFSTYAMGWFRQAPGKEREFVAAISRNADTTYYADSVKGRFTISRDNAKNTVYLQMNSLKPEDTAVYYCAADRYSSNTQVGVARTYYDYWGQGTQVTVSS
3 | > 1 | > 3 | > 1 | > 3 | NKp46-PA27 VHH (his and c-Myc labels) (VHH, IPTG-induced E. coli supernatant used in the screening ELISA; also called NKp46-PA27 clone supernatant; not shown: his and c-Myc labels) VHH: DVQLVESGGGLVQAGASLRLSCAASGRTESWYRMGWFRQAPGKGREVVARISGDTNIKYYAGSVKGRFTISRDNAKNTLYLQMTNLKPEDTARYYCAADRTGATWDYWGQGTQVTVSS

Continued, binder first:

Row | Binder | OD450 [1] | ratio of OD450 to negative control [1] | OD450 [2] | ratio of OD450 to negative control [2]
4 | NKp46-PA24 VHH (his and c-Myc labels) (VHH, IPTG-induced E. coli supernatant used in the screening ELISA; also called NKp46-PA24 clone supernatant; not shown: his and c-Myc labels) VHH: QVQLVESGGGQVQAGGSLRLSCVASGRTYSIYGMGWFRQAPGKEREVVAAINWSSGHTYYADSVKGRFTISKDNAKNTHYLQMNSLKPEDTAVYYCAADSIYGLSFTVKDYDYWGQGTLVTVSS | > 1 | > 3 | > 1 | > 3
5 | NKp46-PA15 VHH (his and c-Myc labels) (VHH, IPTG-induced E. coli supernatant used in the screening ELISA; also called NKp46-PA15 clone supernatant; not shown: his and c-Myc labels) VHH: QVQLVESGGGLVQAGDSLRVSCAASGRTFSTYAMGWFRQAPGKEREFVAASSRDGTTTYYADSVKGRFTISRDNAKNTVYLQMNSLKPEDTAVYYCAASRPLSTTQVGIASAWYEYWGQGTQVTVSS | > 1 | > 3 | > 1 | > 3
6 | NKp46-PA19 VHH (his and c-Myc labels) (VHH, IPTG-induced E. coli supernatant used in the screening ELISA; also called NKp46-PA19 clone supernatant; not shown: his and c-Myc labels) VHH: QVQLVESGGGLVQPGGSLRLACAASGRTFSTYAMGWFRQAPGKEREFVAAISRNGGTTYYADSVKGRFTISRDNAKNTVYLQMNSLKPEDTAVYYCAASRPLSNTQVGVASAWYEFWGQGTLVTVSS | > 1 | > 3 | > 1 | > 3
7 | NKp46-PA26 VHH (his and c-Myc labels) (VHH, IPTG-induced E. coli supernatant used in the screening ELISA; also called NKp46-PA26 clone supernatant; not shown: his and c-Myc labels) VHH: QVQLVESGGGMVQAGGSLRLSCAASGRTFNTIHWFRQAPGKEREFVARIWWIGGATFYADSVKGRFTISRDNTENLVYLQMNSLKPEDTAVYYCAADARYTSHGYYESDYWGPGTQVTVSS | > 1 | > 3 | > 1 | > 3
8 | NKp46-PA11 VHH (his and c-Myc labels) (VHH, IPTG-induced E. coli supernatant used in the screening ELISA; also called NKp46-PA11 clone supernatant; not shown: his and c-Myc labels) VHH: DVQLVESGGGLVQAGGSLRLSCAASGHTESWYRMGWFRQAPGKGREVVGRISGSPGILYYAGSVKGRFTISRDNAKNTLYLQMTNLKPEDTARYYCAADRTGATWDYWGQGTQVTVSS | > 1 | > 3 | > 1 | > 3
